Measured values: IntAct's records for PubMed 23290633

B1: Magnesium transporter NIPA4 (Homo sapiens), Q0D2K0 (parent)
chain: MELRVSNTSCENGSLLHLYCSSQEVLCQIVNDLSPEVPSNATFHSWQERIRQNYGFYIGLGLAFLSSFLIGSSVILKKKGLLRLVATGATRAVDGGFGYLKDAMWWAGFLTMAAGEVANFGAYAFAPATVVTPLGALSVLISAILSSYFLRESLNLLGKLGCVICVAGSTVMVIHAPEEEKVTTIMEMASKMKDTGFIVFAVLLLVSCLILIFVIAPRYGQRNILIYIIICSVIGAFSVAAVKGLGITIKNFFQGLPVVRHPLPYILSLILALSLSTQVNFLNRALDIFNTSLVFPIYYVFFTTVVVTSSIILFKEWYSMSAVDIAGTLSGFVTIILGVFMLHAFKDLDISCASLPHMHKNPPPSPAPEPTVIRLEDKNVLVDNIELASTSSPEEKPKVFIIHS

Variants of: B1
Conditions: with SLC27A4, Q6P1M0
Sequence of SLC27A4, Q6P1M0 (Q6P1M0 whole entry, looked up): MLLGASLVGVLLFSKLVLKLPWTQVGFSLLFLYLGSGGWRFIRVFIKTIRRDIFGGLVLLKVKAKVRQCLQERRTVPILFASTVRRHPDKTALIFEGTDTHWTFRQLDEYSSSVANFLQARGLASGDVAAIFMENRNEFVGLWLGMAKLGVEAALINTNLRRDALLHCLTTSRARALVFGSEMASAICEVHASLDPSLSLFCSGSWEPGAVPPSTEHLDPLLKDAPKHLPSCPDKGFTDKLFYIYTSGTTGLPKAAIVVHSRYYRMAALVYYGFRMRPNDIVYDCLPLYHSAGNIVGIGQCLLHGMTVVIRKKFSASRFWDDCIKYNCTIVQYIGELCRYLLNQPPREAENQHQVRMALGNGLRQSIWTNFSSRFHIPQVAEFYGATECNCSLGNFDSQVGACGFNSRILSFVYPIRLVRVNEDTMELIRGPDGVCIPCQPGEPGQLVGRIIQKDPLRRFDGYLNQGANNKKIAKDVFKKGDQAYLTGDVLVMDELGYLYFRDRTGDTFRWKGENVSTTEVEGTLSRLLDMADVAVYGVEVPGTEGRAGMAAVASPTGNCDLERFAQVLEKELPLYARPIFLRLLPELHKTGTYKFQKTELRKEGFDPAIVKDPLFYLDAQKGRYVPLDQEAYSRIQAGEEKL

effect of a mutation on the interaction	Variant
decreasing interaction	MELRVSNTSCENGSLLHLYCSSQEVLCQIVNDLSPEVPSNATFHSWQERIRQNYGFYIGLGLAFLSSFLIGSSVILKKKGLLRLVATGATRAVDGGFGYLKDAMWWAGFLTMADGEVANFGAYAFAPATVVTPLGALSVLISAILSSYFLRESLNLLGKLGCVICVAGSTVMVIHAPEEEKVTTIMEMASKMKDTGFIVFAVLLLVSCLILIFVIAPRYGQRNILIYIIICSVIGAFSVAAVKGLGITIKNFFQGLPVVRHPLPYILSLILALSLSTQVNFLNRALDIFNTSLVFPIYYVFFTTVVVTSSIILFKEWYSMSAVDIAGTLSGFVTIILGVFMLHAFKDLDISCASLPHMHKNPPPSPAPEPTVIRLEDKNVLVDNIELASTSSPEEKPKVFIIHS [A114D]
